# Results published in US20060009379A1 (GOVERNMENT OF THE UNITED STATES OF AMERICAN AS REPRESENTED …, published 2006).
# Target: T1, GST-p53 fusion protein (UniProt P04637 1-393)
# T1 construct: not shown: glutathione S-transferase (GST) fusion partner
# Test: GST-p53 pull-down of HA-tagged protein from H1299 lysate, α-HA Western blot
# Protocol: FIG. 6F is a digital image of mapping of p53-interacting region in nucleostemin by GST pull-down assay. […] The retained proteins (bound) were detected by α-HA Western blot and expressed as ratios to the input.
# To map the interacting region between nucleostemin and p53, HA-tagged mutant proteins were expressed in H1299 cells and incubated with agarose-bound GST-p53 fusion protein in GST pull-down experiments. The amount of mutant proteins retained by GST-p53 fusion was measured by Western blot and presented as the ratio to the input proteins.
# T1 sequence (P04637 whole entry, the tested form may be a part): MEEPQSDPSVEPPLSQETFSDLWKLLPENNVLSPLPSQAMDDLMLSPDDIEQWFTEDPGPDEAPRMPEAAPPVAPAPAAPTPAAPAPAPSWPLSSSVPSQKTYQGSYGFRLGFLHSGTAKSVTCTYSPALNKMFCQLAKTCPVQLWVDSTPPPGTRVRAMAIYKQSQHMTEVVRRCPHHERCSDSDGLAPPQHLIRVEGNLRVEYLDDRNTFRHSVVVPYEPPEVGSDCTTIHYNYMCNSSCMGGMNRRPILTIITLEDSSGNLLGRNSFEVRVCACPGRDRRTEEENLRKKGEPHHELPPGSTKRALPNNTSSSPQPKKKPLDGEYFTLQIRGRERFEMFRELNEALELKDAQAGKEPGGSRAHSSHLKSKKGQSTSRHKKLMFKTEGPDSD
"fold reduction of the amount bound, against wild-type nucleostemin",Binder,also measured
1.5 fold,"HA-tagged nucleostemin mutant dA (deletion of the acidic domain, codons 460-503) (other, not shown: HA (hemagglutinin) tag) MKRPKLKKASKRMTCHKRYKIQKKVREHHRKLRKEAKKRGHKKPKKDPGVPNSAPFKEALLREAELRKQQLEELKQQQKLDRQKEQERKRKLEISPDDEQSNVETQEESDEPKIKKAKSGKQNPKKLHCQELKKVIEASDIVLEVLDARDPLGCRCPQVEEAVIQSGCKKLVLVLNKSDLVPKENLENWLTYLNKELPTVVFKASTNLKNRKKTFKIKKKVVPFQSKLCCGKEALWKLLGGFQQSCGKGVQVGVVGFPNVGKSSIINSLKQERICSVGVSMGLTRSMQIVPLDKQITIIDSPCFIISPCNSPAALALRSPASIEVLRPLEAASAILSQADSQQVVLKYTVPGYKDSLDFFTKLAQRRGLHQKGGSPNVESAAKLLWSEWTGASLGYYCHPPASWNHSPHFNENITAIMKRGFNLEELEKNNAHSIQVLKGPHLTNKILFRSSGLTNGILMSPGQSTASKPSDRSFILDKMSEEDDAYDFTTDYI",
,"HA-tagged nucleostemin mutant dG4 (deletion of the G4 GTP-binding motif, codons 177-180) (other, not shown: HA (hemagglutinin) tag) MKRPKLKKASKRMTCHKRYKIQKKVREHHRKLRKEAKKRGHKKPKKDPGVPNSAPFKEALLREAELRKQQLEELKQQQKLDRQKEQERKRKLEISPDDEQSNVETQEESDEPKIKKAKSGKQNPKKLHCQELKKVIEASDIVLEVLDARDPLGCRCPQVEEAVIQSGCKKLVLVLNVPKENLENWLTYLNKELPTVVFKASTNLKNRKKTFKIKKKVVPFQSKLCCGKEALWKLLGGFQQSCGKGVQVGVVGFPNVGKSSIINSLKQERICSVGVSMGLTRSMQIVPLDKQITIIDSPCFIISPCNSPAALALRSPASIEVLRPLEAASAILSQADSQQVVLKYTVPGYKDSLDFFTKLAQRRGLHQKGGSPNVESAAKLLWSEWTGASLGYYCHPPASWNHSPHFNENITAIMKRGFNLEELEKNNAHSIQVLKGPHLTNKILFRSSGLTNGILEEKDIPEESPKQTEDQQDGDDQEHVTGEKNAEISDVTPVEETREMSPGQSTASKPSDRSFILDKMSEEDDAYDFTTDYI","fold increase of the amount bound, against wild-type nucleostemin: 1.5 fold"
,"HA-tagged nucleostemin mutant dB (deletion of the basic domain, codons 2-46) (other, not shown: HA (hemagglutinin) tag) MDPGVPNSAPFKEALLREAELRKQQLEELKQQQKLDRQKEQERKRKLEISPDDEQSNVETQEESDEPKIKKAKSGKQNPKKLHCQELKKVIEASDIVLEVLDARDPLGCRCPQVEEAVIQSGCKKLVLVLNKSDLVPKENLENWLTYLNKELPTVVFKASTNLKNRKKTFKIKKKVVPFQSKLCCGKEALWKLLGGFQQSCGKGVQVGVVGFPNVGKSSIINSLKQERICSVGVSMGLTRSMQIVPLDKQITIIDSPCFIISPCNSPAALALRSPASIEVLRPLEAASAILSQADSQQVVLKYTVPGYKDSLDFFTKLAQRRGLHQKGGSPNVESAAKLLWSEWTGASLGYYCHPPASWNHSPHFNENITAIMKRGFNLEELEKNNAHSIQVLKGPHLTNKILFRSSGLTNGILEEKDIPEESPKQTEDQQDGDDQEHVTGEKNAEISDVTPVEETREMSPGQSTASKPSDRSFILDKMSEEDDAYDFTTDYI","binding of nucleostemin to p53 (retained protein, ratio to input): 17%"
1.5 fold,"HA-tagged nucleostemin mutant dCC (deletion of the coiled-coil domain, codons 61-87) (other, not shown: HA (hemagglutinin) tag) MKRPKLKKASKRMTCHKRYKIQKKVREHHRKLRKEAKKRGHKKPKKDPGVPNSAPFKEALRKRKLEISPDDEQSNVETQEESDEPKIKKAKSGKQNPKKLHCQELKKVIEASDIVLEVLDARDPLGCRCPQVEEAVIQSGCKKLVLVLNKSDLVPKENLENWLTYLNKELPTVVFKASTNLKNRKKTFKIKKKVVPFQSKLCCGKEALWKLLGGFQQSCGKGVQVGVVGFPNVGKSSIINSLKQERICSVGVSMGLTRSMQIVPLDKQITIIDSPCFIISPCNSPAALALRSPASIEVLRPLEAASAILSQADSQQVVLKYTVPGYKDSLDFFTKLAQRRGLHQKGGSPNVESAAKLLWSEWTGASLGYYCHPPASWNHSPHFNENITAIMKRGFNLEELEKNNAHSIQVLKGPHLTNKILFRSSGLTNGILEEKDIPEESPKQTEDQQDGDDQEHVTGEKNAEISDVTPVEETREMSPGQSTASKPSDRSFILDKMSEEDDAYDFTTDYI",
